Test results taken from patent US20100105141, “Sulfonylurea-Responsive Repressor Proteins” (Pioneer Hi-Bred International, Inc., published 2010).

Target: L7-1F08-A11 (L7-A11, EsR2) (synthetic, UniProt P04483 SEQ:1-207, L55M,H64A,F67Y,F86M,H100C,R104G,P105F,K108Q,L113A,Q116S,L134M,S135Q,H139I,F140Y, …)
Assay: EMSA; 5 pmol DNA, 20 mM Tris-HCl pH 8.0, 10 mM EDTA, RT 0.5 h; released by ethametsulfuron dose-dependently, less by chlorsulfuron; no change with atc
Details: chain copies: 2
Protocol: Five pmol of TetO or control DNA was mixed with the indicated amounts (FIG. 7) of ethametsulfuron repressor protein (L7A11) or BSA control with or without inducer in complex buffer containing 20 mM Tris-HCl (pH8.0) and 10 mM EDTA. The mixture was incubated at room temperature for 0.5 hour before loading onto the gel. The reaction was electrophoresed on a Novex 6% DNA retardation gel (Invitrogen, EC6365BOX) at room temperature, 38 V in 0.5×TBE buffer for about 2 hours. DNA was detected by ethidium bromide staining.

B1: tetO 48 bp (dsDNA)
DNA 1: CCTAATTTTTGTTGACACTCTATCATTGATAGAGTTATTTTACCACTC
DNA 2: GAGTGGTAAAATAACTCTATCAATGATAGAGTGTCAACAAAAATTAGG
- binding result: binds
